Experimental data: patent publication EP1674575A2 (LA JOLLA INSTITUTE FOR ALLERGY AND IMMUNOLOGY, dated 2006)

B2: LIGHTt66-FLAG mutant Y173F (ligand, human, UniProt O43557 67-240, looked up, not shown: small tags and cut ends)
chain: EMVTRLPDGPAGSWEQLIQERRSHEVNPAAHLTGANSSLTGSGGPLLWETQLGLAFLRGLSYHDGALVVTKAGYYYIYSKVQLGGVGCPLGLASTITHGLYKRTPRFPEELELLVSQQSPCGRATSSSRVWWDSSFLGGVVHLEAGEKVVVRVLDERLVRLRDGTRSYFGAFMV
notes: range 67-240; Homotrimer, from transiently transfected 293T cells
B3: LIGHTt66-FLAG mutant L120Q (ligand, human, UniProt O43557 67-240, looked up, not shown: small tags and cut ends)
chain: EMVTRLPDGPAGSWEQLIQERRSHEVNPAAHLTGANSSLTGSGGPLLWETQLGQAFLRGLSYHDGALVVTKAGYYYIYSKVQLGGVGCPLGLASTITHGLYKRTPRYPEELELLVSQQSPCGRATSSSRVWWDSSFLGGVVHLEAGEKVVVRVLDERLVRLRDGTRSYFGAFMV
notes: as for B2
B4: LIGHTt66-FLAG mutant Q117T (ligand, human, UniProt O43557 67-240, looked up, not shown: small tags and cut ends)
chain: EMVTRLPDGPAGSWEQLIQERRSHEVNPAAHLTGANSSLTGSGGPLLWETTLGLAFLRGLSYHDGALVVTKAGYYYIYSKVQLGGVGCPLGLASTITHGLYKRTPRYPEELELLVSQQSPCGRATSSSRVWWDSSFLGGVVHLEAGEKVVVRVLDERLVRLRDGTRSYFGAFMV
notes: as for B2
B6: HVEM:Fc (extracellular region of HVEM, 1 to K184, fused to the Fc region of human IgG1) (Fc fusion, UniProt Q92956 39-184, looked up)
chain: LPSCKEDEYPVGSECCPKCSPGYRVKEACGELTGTVCEPCPPGTYIAHLNGLSKCLQCQMCDPAMGLRASRNCSRTENAVCGCSPGHFCIVQDGDHCAACRAYATSSPGQRVQKGGTESQDTLCQNCPPGTFSPNGTLEECQHQTK
notes: range 1-184; Bivalent chimeric protein made in baculovirus; also called huHVEM:Fc; hu HVEM:Fc; not shown: Fc region of human IgG1
B7: mouse LTβR:Fc (amino acid residues 1 to Met221 of the extracellular domain of mouse LTβR) (Fc fusion, UniProt P50284 31-221, looked up)
chain: QLVPPYRIENQTCWDQDKEYYEPMHDVCCSRCPPGEFVFAVCSRSQDTVCKTCPHNSYNEHWNHLSTCQLCRPCDIVLGFEEVAPCTSDRKAECRCQPGMSCVYLDNECVHCEEERLVLCQPGTEAEVTDEIMDTDVNCVPCKPGHFQNTSSPRARCQPHTRCEIQGLVEAAPGTSYSDTICKNPPEPGAM
notes: range 1-221; also called mLTβR:Fc; murine LTβR:Fc; not shown: Fc part

Experiments:
[1] = biological target: LTβR (lymphotoxin β receptor) expressed by cells (human, UniProt P36941 31-435); experiment: cell-based or functional assay
[2] = biological target: B6; experiment: SPR (BIAcore)
human LTβR:Fc = biological target: T1, human LTβR:Fc (human, UniProt P36941 31-227, limits assumed); experiment: SPR (BIAcore), receptor:Fc amine-coupled, LIGHT mutant as analyte 100-500 nM
T1 construct: also called huLTβR:Fc; hu LTβR:Fc; not shown: Fc region of human IgG1
T1 sequence (P36941 31-227 limits assumed): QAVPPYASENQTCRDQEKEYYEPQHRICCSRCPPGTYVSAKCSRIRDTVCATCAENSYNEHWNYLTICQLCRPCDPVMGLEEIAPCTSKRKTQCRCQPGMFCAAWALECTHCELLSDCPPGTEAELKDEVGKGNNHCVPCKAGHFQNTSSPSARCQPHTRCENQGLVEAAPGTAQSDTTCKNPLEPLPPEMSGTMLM

[3] = biological target: B7; experiment: ELISA, receptor:Fc capture, anti-FLAG detection
[4] = biological target: B2; experiment: ELISA, receptor:Fc capture, anti-FLAG detection
[5] = biological target: B3; experiment: ELISA, receptor:Fc capture, anti-FLAG detection
[6] = biological target: B2; experiment: SPR (BIAcore)
LTαTyr108Phe = biological target: T2, LTαTyr108Phe (UniProt P01374 35-205); experiment: competition for HVEM:Fc binding to II-23.D7 cells, flow cytometry (Figure 3)
T2 construct: also called LTαY108F; Y108F
T2 sequence (looked up): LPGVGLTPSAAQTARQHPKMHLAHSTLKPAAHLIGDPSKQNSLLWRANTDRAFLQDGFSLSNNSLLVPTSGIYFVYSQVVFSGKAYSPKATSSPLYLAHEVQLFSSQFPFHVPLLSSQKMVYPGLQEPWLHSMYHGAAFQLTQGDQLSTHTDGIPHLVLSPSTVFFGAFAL

LTα homotrimer = biological target: T3, LTα homotrimer (UniProt P01374 35-205); experiment: precipitation of 35S-labeled secreted proteins, SDS-PAGE
T3 construct: also called recombinant LTα; secreted LTα
T3 sequence (looked up): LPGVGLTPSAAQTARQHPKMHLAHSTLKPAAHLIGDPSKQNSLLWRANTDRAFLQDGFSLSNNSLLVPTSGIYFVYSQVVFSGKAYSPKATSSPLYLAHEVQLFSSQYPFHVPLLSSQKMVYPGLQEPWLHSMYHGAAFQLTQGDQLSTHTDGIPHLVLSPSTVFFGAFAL

[7] = biological target: T4, p30 (LIGHT), the 30 kDa cell surface HVEM ligand of activated II-23.D7 cells and human T cells (human, UniProt O43557 1-240); experiment: flow cytometry, saturation binding to activated II-23.D7 cells
T4 construct: whole, on cells; Endogenous protein, tested on the cell surface in flow cytometry and from detergent extracts in precipitations; also called 30 kDa protein

[8] = biological target: B2; experiment: SPR (BIAcore), receptor:Fc amine-coupled, LIGHT mutant as analyte 100-500 nM
[9] = biological target: B4; experiment: as above
TNF = biological target: T5, TNF (UniProt P01375 77-233); experiment: precipitation of 35S-labeled secreted proteins of II-23.D7 cells, SDS-PAGE
T5 construct: also called TNF (17 kDa)
T5 sequence (P01375 77-233 limits assumed): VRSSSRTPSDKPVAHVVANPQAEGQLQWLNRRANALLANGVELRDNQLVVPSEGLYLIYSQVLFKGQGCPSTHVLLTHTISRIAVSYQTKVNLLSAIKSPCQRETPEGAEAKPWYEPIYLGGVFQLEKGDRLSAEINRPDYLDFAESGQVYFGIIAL

[10] = biological target: T6, LTα1β2 complex (LTβ 33 kDa and LTα 23-25 kDa) from detergent extracts of PMA activated II-23.D7 cells (human, UniProt P01374 35-205; Q06643 1-244); experiment: precipitation with murine LTβR:Fc, 2D electrophoresis (Figure 4A)
T6 construct: Endogenous membrane complex, precipitated from detergent extracts; also called LTβ and LTα complex
T6 sequence (looked up) 1: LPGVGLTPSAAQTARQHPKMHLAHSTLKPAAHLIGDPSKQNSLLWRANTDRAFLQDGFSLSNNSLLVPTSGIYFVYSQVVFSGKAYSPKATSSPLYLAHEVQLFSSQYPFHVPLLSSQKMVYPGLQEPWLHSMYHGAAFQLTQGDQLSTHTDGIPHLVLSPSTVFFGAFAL
T6 sequence (looked up) 2: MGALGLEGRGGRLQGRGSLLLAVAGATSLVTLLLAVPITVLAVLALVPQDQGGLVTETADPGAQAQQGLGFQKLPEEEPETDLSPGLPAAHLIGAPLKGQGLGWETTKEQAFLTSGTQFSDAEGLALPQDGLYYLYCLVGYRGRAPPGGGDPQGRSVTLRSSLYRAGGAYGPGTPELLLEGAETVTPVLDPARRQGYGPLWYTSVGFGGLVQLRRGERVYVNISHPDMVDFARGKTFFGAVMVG

gD-1 (Δ290-299t) = biological target: T7, gD-1 (Δ290-299t) (herpes simplex virus type 1, UniProt Q69091 26-331); experiment: binding inhibition, flow cytometry
T7 construct: also called gD-1 (Δ1290 - 299t)
T7 sequence (Q69091 26-314, tags or fused parts left off): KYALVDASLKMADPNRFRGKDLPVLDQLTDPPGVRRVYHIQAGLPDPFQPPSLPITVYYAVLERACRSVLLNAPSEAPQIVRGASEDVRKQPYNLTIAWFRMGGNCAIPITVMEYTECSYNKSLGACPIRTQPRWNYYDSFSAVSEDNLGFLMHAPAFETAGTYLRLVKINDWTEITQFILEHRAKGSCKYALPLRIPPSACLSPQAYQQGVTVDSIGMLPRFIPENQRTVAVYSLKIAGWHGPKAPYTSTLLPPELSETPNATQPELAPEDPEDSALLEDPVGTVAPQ

[11] = biological target: T4, p30 (LIGHT), the 30 kDa cell surface …; experiment: precipitation from detergent extracts of activated II-23.D7 cells; competition by flow cytometry
[12] = biological target: T4, p30 (LIGHT), the 30 kDa cell surface …; experiment: competition for HVEM:Fc binding to activated II-23.D7 cells, flow cytometry

B1: recombinant soluble LTα1β2 (ligand)
chain 1: LPGVGLTPSAAQTARQHPKMHLAHSTLKPAAHLIGDPSKQNSLLWRANTDRAFLQDGFSLSNNSLLVPTSGIYFVYSQVVFSGKAYSPKATSSPLYLAHEVQLFSSQYPFHVPLLSSQKMVYPGLQEPWLHSMYHGAAFQLTQGDQLSTHTDGIPHLVLSPSTVFFGAFAL
chain 2: QDQGGLVTETADPGAQAQQGLGFQKLPEEEPETDLSPGLPAAHLIGAPLKGQGLGWETTKEQAFLTSGTQFSDAEGLALPQDGLYYLYCLVGYRGRAPPGGGDPQGRSVTLRSSLYRAGGAYGPGTPELLLEGAETVTPVLDPARRQGYGPLWYTSVGFGGLVQLRRGERVYVNISHPDMVDFARGKTFFGAVMVG
fold decrease in relative anti-HCMV activity (against LTα and LIGHT) [1]: ~10 fold

B2
fold lower affinity than LIGHT t66 [2]: > 40 fold
fold induction of ICAM expression by NHDF cells (flow cytometry, 20 nM) [1]: 2.5 fold
Kd (human LTβR:Fc): 31 nM
koff (human LTβR:Fc): 0.0011 s⁻¹
kon (human LTβR:Fc): 37000 M⁻¹ s⁻¹
binding result [3]: no binding

B3
binding result [3]: binds

B4
Kd (human LTβR:Fc): 1.5 nM
koff (human LTβR:Fc): 4.5e-05 s⁻¹

B5: mouse HVEM:Fc (mouse HVEM Met1 to Ser205 fused to the Fc region of human IgG1) (Fc fusion, UniProt Q80WM9 39-205, looked up)
chain: QPSCRQEEFLVGDECCPMCNPGYHVKQVCSEHTGTVCAPCPPQTYTAHANGLSKCLPCGVCDPDMGLLTWQECSSWKDTVCRCIPGYFCENQDGSHCSTCLQHTTCPPGQRVEKRGTHDQDTVCADCLTGTFSLGGTQEECLPWTNCSAFQQEVRRGTNSTDTTCSS
notes: range 1-205; also called mHVEM:Fc; murine HVEM:Fc; not shown: Fc region of human IgG1 (printed IgC1) at the 3' end of the HVEM insert
binding result [4]: no binding
binding result [5]: binds

B6
Kd [6]: 180 nM
binding result (LTαTyr108Phe): no binding
binding result (LTα homotrimer): binds
EC50 [7]: ~20 nM
Kd [8]: 173 nM
koff [8]: 0.0033 s⁻¹
kon [8]: 19000 M⁻¹ s⁻¹
Kd [9]: 0.3 nM
kon [9]: 20000 M⁻¹ s⁻¹
binding result (TNF): no binding

B7
binding result [10]: binds

B8: TNFR60:Fc (Fc fusion, UniProt P19438 30-211, looked up)
chain: LVPHLGDREKRDSVCPQGKYIHPQNNSICCTKCHKGTYLYNDCPGPGQDTDCRECESGSFTASENHLRHCLSCSKCRKEMGQVEISSCTVDRDTVCGCRKNQYRHYWSENLFQCFNCSLCLNGTVHLSCQEKQNTVCTCHAGFFLRENECVSCSNCKKSLECTKLCLPQIENVKGTEDSGTT
notes: also called TNFR:Fc; soluble type I TNFR protein (TNFR:Fc); not shown: Fc region of human IgG1
binding result (gD-1 (Δ290-299t)): no binding
binding result [11]: no binding

B9: Fas:Fc (Fc fusion, UniProt P25445 26-173, looked up)
chain: QVTDINSKGLELRKTVTTVETQNLEGLHHDGQFCHKPCPPGERKARDCTVNGDEPDCVPCQEGKEYTDKAHFSSKCRRCRLCDEGHGLEVEINCTRTQNTKCRCKPNFFCNSTVCEHCDPCTKCEHGIIKECTLTSNTKCKEEGSRSN
notes: not shown: Fc region of human IgG1
binding result [12]: no binding
